Source: patent US20170306033A1 (Amgen, published 2017)

T1: human PAC1 receptor (human, UniProt P41586 21-468)
T1 sequence: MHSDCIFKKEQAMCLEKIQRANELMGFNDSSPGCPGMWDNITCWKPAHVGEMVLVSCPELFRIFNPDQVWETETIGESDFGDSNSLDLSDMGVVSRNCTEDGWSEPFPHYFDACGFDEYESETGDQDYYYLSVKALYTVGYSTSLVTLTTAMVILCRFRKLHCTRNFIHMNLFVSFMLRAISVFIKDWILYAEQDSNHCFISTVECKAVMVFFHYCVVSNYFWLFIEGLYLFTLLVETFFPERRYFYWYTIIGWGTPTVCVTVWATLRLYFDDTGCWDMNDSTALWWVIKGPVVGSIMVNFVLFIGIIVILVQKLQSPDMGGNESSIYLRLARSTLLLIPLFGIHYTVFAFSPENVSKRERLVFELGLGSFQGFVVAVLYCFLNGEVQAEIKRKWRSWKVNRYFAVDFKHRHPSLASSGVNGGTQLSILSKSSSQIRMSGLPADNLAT


Legend:
human CGRP receptor = human CGRP receptor (human, UniProt Q16602 23-461; O60894 27-148); experiment: cell-based or functional assay
human PAC1 receptor = molecular target: T1, human PAC1 receptor; experiment: cell-based or functional assay

Sequence of human CGRP receptor (Q16602 23-461 limits assumed, chain 1 of 2): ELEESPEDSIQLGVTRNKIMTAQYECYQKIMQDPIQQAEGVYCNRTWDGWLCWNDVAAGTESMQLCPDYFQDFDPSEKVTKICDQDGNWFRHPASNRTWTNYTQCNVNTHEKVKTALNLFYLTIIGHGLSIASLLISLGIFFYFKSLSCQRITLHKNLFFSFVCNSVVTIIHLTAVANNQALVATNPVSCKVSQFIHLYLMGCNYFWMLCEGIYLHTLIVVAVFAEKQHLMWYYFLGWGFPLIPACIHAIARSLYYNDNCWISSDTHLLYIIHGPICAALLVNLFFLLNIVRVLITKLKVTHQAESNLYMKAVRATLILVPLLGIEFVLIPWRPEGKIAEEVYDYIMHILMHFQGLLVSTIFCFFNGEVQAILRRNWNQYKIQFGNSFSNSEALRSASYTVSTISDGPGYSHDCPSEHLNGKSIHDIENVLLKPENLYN
Sequence of human CGRP receptor (O60894 27-148 limits assumed, chain 2 of 2): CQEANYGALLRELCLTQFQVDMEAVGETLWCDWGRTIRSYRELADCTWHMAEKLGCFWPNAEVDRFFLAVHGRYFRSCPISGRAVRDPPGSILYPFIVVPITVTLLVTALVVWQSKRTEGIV

| Binder | % inhibition of human CGRPR (human CGRP receptor) [%] | % inhibition of human PAC1 (human PAC1 receptor) [%] |
| --- | --- | --- |
| iPS:327719 (bispecific antibody, human IgG1, kappa, lambda, N297G) light 1: DIQLTQSPSFLSASVGDRVTITCRASQSIGRSLHWYQQKPGKAPKLLIKYASQSLSGVPSRFSGSGSGTEFTLTISSLQPEDFATYYCHQSSRLPFTFGPGTKVDIKRTVAAPSVFIFPPSDEQLKSGTASVVCLLNNFYPREAKVQWKVDNALQSGNSQESVTEQDSKDSTYSLESTLTLSKADYEKHKVYACEVTHQGLSSPVTKSFNRGEC heavy 1: not shown light 2: QSVLTQPPSVSAAPGQKVTISCSGSSSNIGNNYVSWYQQLPGTAPKLLIYDNNKRPSGIPDRFSGSKSGTSATLAITGLQTGDEADYYCGTWDSRLSAVVFGGGTKLTVLGQPKANPTVTLFPPSSEELQANKATLVCLISDFYPGAVTVAWKADGSPVKAGVETTKPSKQSNNKYAAKSYLSLTPEQWKSHRSYSCQVTHEGSTVEKTVAPTECS heavy 2: QVQLVESGGGVVQPGRSLRLSCAASGFTFSSFGMHWVRQAPGKGLEWVAVISFDGSIKYSVDSVKGRFTISRDNSKNTLFLQMNSLRAEDTAVYYCARDRLNYYDSSGYYHYKYYGMAVWGQGTTVTVSSASTKGPSVFPLAPSSKSTSGGTAALGCLVKDYFPEPVTVSWNSGALTSGVHTFPAVLQSSGLYSLESVVTVPSSSLGTQTYICNVNHKPSNTKVDKKVEPKSCDKTHTCPPCPAPELLGGPSVFLFPPKPKDTLMISRTPEVTCVVVDVSHEDPEVKFNWYVDGVEVHNAKTKPCEEQYGSTYRCVSVLTVLHQDWLNGKEYKCKVSNKALPAPIEKTISKAKGQPREPQVYTLPPSRKEMTKNQVSLTCLVKGFYPSDIAVEWESNGQPENNYKTTPPVLKSDGSFFLYSKLTVDKSRWQQGNVFSCSVMHEALHNHYTQKSLSLSPGK | 85 | 59 |
| iPS:327721 (bispecific antibody, human IgG1, kappa, lambda, N297G) light 1: EIVLTQSPATLSLSPGERATLSCRASQSVGRSLHWYQQKPGQAPRLLIKYASQSLSGIPARFSGSGSGTDFTLTISSLEPEDFAVYYCHQSSRLPFTFGPGTKVDIKRTVAAPSVFIFPPSDEQLKSGTASVVCLLNNFYPREAKVQWKVDNALQSGNSQESVTEQDSKDSTYSLESTLTLSKADYEKHKVYACEVTHQGLSSPVTKSFNRGEC heavy 1: not shown light 2: QSVLTQPPSVSAAPGQKVTISCSGSSSNIGNNYVSWYQQLPGTAPKLLIYDNNKRPSGIPDRFSGSKSGTSATLAITGLQTGDEADYYCGTWDSRLSAVVFGGGTKLTVLGQPKANPTVTLFPPSSEELQANKATLVCLISDFYPGAVTVAWKADGSPVKAGVETTKPSKQSNNKYAAKSYLSLTPEQWKSHRSYSCQVTHEGSTVEKTVAPTECS heavy 2: QVQLVESGGGVVQPGRSLRLSCAASGFTFSSFGMHWVRQAPGKGLEWVAVISFDGSIKYSVDSVKGRFTISRDNSKNTLFLQMNSLRAEDTAVYYCARDRLNYYDSSGYYHYKYYGMAVWGQGTTVTVSSASTKGPSVFPLAPSSKSTSGGTAALGCLVKDYFPEPVTVSWNSGALTSGVHTFPAVLQSSGLYSLESVVTVPSSSLGTQTYICNVNHKPSNTKVDKKVEPKSCDKTHTCPPCPAPELLGGPSVFLFPPKPKDTLMISRTPEVTCVVVDVSHEDPEVKFNWYVDGVEVHNAKTKPCEEQYGSTYRCVSVLTVLHQDWLNGKEYKCKVSNKALPAPIEKTISKAKGQPREPQVYTLPPSRKEMTKNQVSLTCLVKGFYPSDIAVEWESNGQPENNYKTTPPVLKSDGSFFLYSKLTVDKSRWQQGNVFSCSVMHEALHNHYTQKSLSLSPGK | 81 | 99 |
| iPS:327731 (bispecific antibody, human IgG1, kappa, lambda, N297G) light 1: not shown heavy 1: not shown light 2: QSVLTQPPSVSAAPGQKVTISCSGSSSNIGNNYVSWYQQLPGTAPKLLIYDNNKRPSGIPDRFSGSKSGTSATLGITGLQTGDEADYYCGTWDSRLSAVVFGGGTKLTVLGQPKANPTVTLFPPSSEELQANKATLVCLISDFYPGAVTVAWKADGSPVKAGVETTKPSKQSNNKYAAKSYLSLTPEQWKSHRSYSCQVTHEGSTVEKTVAPTECS heavy 2: QVQLVESGGGVVQPGRSLRLSCAASGFTFSSFGMHWVRQAPGKGLEWVAVISFDGSIKYSVDSVKGRFTISRDNSKNTLFLQMNSLRAEDTAVYYCARDRLNYYESSGYYHYKYYGMAVWGQGTTVTVSSASTKGPSVFPLAPSSKSTSGGTAALGCLVKDYFPEPVTVSWNSGALTSGVHTFPAVLQSSGLYSLESVVTVPSSSLGTQTYICNVNHKPSNTKVDKKVEPKSCDKTHTCPPCPAPELLGGPSVFLFPPKPKDTLMISRTPEVTCVVVDVSHEDPEVKFNWYVDGVEVHNAKTKPCEEQYGSTYRCVSVLTVLHQDWLNGKEYKCKVSNKALPAPIEKTISKAKGQPREPQVYTLPPSRKEMTKNQVSLTCLVKGFYPSDIAVEWESNGQPENNYKTTPPVLKSDGSFFLYSKLTVDKSRWQQGNVFSCSVMHEALHNHYTQKSLSLSPGK | 74 | 74 |

Second part, the binder after the results:

| % inhibition of human CGRPR (human CGRP receptor) [%] | % inhibition of human PAC1 (human PAC1 receptor) [%] | Binder |
| --- | --- | --- |
| 69 | 56 | iPS:327732 (bispecific antibody, human IgG1, kappa, lambda, N297G) light 1: not shown heavy 1: not shown light 2: QSVLTQPPSVSAAPGQKVTISCSGSSSNIGNNYVSWYQQLPGTAPKLLIYDNNKRPSGIPDRFSGSKSGTSATLGITGLQTGDEADYYCGTWDSRLSAVVFGGGTKLTVLGQPKANPTVTLFPPSSEELQANKATLVCLISDFYPGAVTVAWKADGSPVKAGVETTKPSKQSNNKYAAKSYLSLTPEQWKSHRSYSCQVTHEGSTVEKTVAPTECS heavy 2: QVQLVESGGGVVQPGRSLRLSCAASGFTFSSFGMHWVRQAPGKGLEWVAVISFDGSIKYSVDSVKGRFTISRDNSKNTLFLQMNSLRAEDTAVYYCARDRLNYYESSGYYHYKYYGMAVWGQGTTVTVSSASTKGPSVFPLAPSSKSTSGGTAALGCLVKDYFPEPVTVSWNSGALTSGVHTFPAVLQSSGLYSLESVVTVPSSSLGTQTYICNVNHKPSNTKVDKKVEPKSCDKTHTCPPCPAPELLGGPSVFLFPPKPKDTLMISRTPEVTCVVVDVSHEDPEVKFNWYVDGVEVHNAKTKPCEEQYGSTYRCVSVLTVLHQDWLNGKEYKCKVSNKALPAPIEKTISKAKGQPREPQVYTLPPSRKEMTKNQVSLTCLVKGFYPSDIAVEWESNGQPENNYKTTPPVLKSDGSFFLYSKLTVDKSRWQQGNVFSCSVMHEALHNHYTQKSLSLSPGK |
| 82 | 38 | iPS:327722 (bispecific antibody, human IgG1, kappa, lambda, N297G) light 1: DIQMTQSPSSLSASVGDRITITCRASQSISRYLNWYQQKPGKAPKLLIYAASSLQSGIPSRFSGSGSGTDFTLTINSLQPEDFATYFCQQSYSPPFTFGEGTKVDIKRTVAAPSVFIFPPSDEQLKSGTASVVCLLNNFYPREAKVQWKVDNALQSGNSQESVTEQDSKDSTYSLESTLTLSKADYEKHKVYACEVTHQGLSSPVTKSFNRGEC heavy 1: not shown light 2: QSVLTQPPSVSAAPGQKVTISCSGSSSNIGNNYVSWYQQLPGTAPKLLIYDNNKRPSGIPDRFSGSKSGTSATLAITGLQTGDEADYYCGTWDSRLSAVVFGKGTKLTVLGQPKANPTVTLFPPSSEELQANKATLVCLISDFYPGAVTVAWKADGSPVKAGVETTKPSKQSNNKYAAKSYLSLTPEQWKSHRSYSCQVTHEGSTVEKTVAPTECS heavy 2: QVQLVESGGGVVQPGRSLRLSCAASGFTFSSFGMHWVRQAPGKELEWVAVISFDGSIKYSVDSVKGRFTISRDNSKNTLFLQMNSLRAEDTAVYYCARDRLNYYDSSGYYHYKYYGMAVWGQGTTVTVSSASTKGPSVFPLAPSSKSTSGGTAALGCLVKDYFPEPVTVSWNSGALTSGVHTFPAVLQSSGLYSLESVVTVPSSSLGTQTYICNVNHKPSNTKVDKKVEPKSCDKTHTCPPCPAPELLGGPSVFLFPPKPKDTLMISRTPEVTCVVVDVSHEDPEVKFNWYVDGVEVHNAKTKPCEEQYGSTYRCVSVLTVLHQDWLNGKEYKCKVSNKALPAPIEKTISKAKGQPREPQVYTLPPSRKEMTKNQVSLTCLVKGFYPSDIAVEWESNGQPENNYKTTPPVLKSDGSFFLYSKLTVDKSRWQQGNVFSCSVMHEALHNHYTQKSLSLSPGK |
| 67 | 86 | iPS:327870 (bispecific antibody, human IgG2, kappa, lambda) light 1: not shown heavy 1: QVQLQQSGPGLVKPSQTLSLTCAISGDSVSSNSATWNWIRQSPSRGLEWLGRTYYRSKWSNHYAVSVKSRITINPDTSKSQFSLQLNSVTPEDTAVYYCARGTWKQLWFLDHWGQGTLVTVSSASTKGPSVFPLAPCSRSTSESTAALGCLVKDYFPEPVTVSWNSGALTSGVHTFPAVLQSSGLYSLKSVVTVPSSNFGTQTYTCNVDHKPSNTKVDKTVERKCCVECPPCPAPPVAGPSVFLFPPKPKDTLMISRTPEVTCVVVDVSHEDPEVQFNWYVDGVEVHNAKTKPREEQFNSTFRVVSVLTVVHQDWLNGKEYKCKVSNKGLPAPIEKTISKTKGQPREPQVYTLPPSREEMTKNQVSLTCLVDGFYPSDIAVEWESNGQPENNYDTTPPMLDSDGSFFLYSDLTVDKSRWQQGNVFSCSVMHEALHNHYTQKSLSLSPGK light 2: QSVLTQPPSVSAAPGQKVTISCSGSSSNIGNNYVSWYQQLPGTAPKLLIYDNNKRPSGIPDRFSGSKSGTSTTLGITGLQTGDEADYYCGTWDSRLSAVVFGGGTKLTVLGQPKANPTVTLFPPSSEELQANKATLVCLISDFYPGAVTVAWKADGSPVKAGVETTKPSKQSNNKYAAKSYLSLTPEQWKSHRSYSCQVTHEGSTVEKTVAPTECS heavy 2: QVQLVESGGGVVQPGRSLRLSCAASGFTFSSFGMHWVRQAPGKGLEWVAVISFDGSIKYSVDSVKGRFTISRDNSKNTLFLQMNSLRAEDTAVYYCARDRLNYYDSSGYYHYKYYGMAVWGQGTTVTVSSASTKGPSVFPLAPCSRSTSESTAALGCLVKDYFPEPVTVSWNSGALTSGVHTFPAVLQSSGLYSLESVVTVPSSNFGTQTYTCNVDHKPSNTKVDKTVERKCCVECPPCPAPPVAGPSVFLFPPKPKDTLMISRTPEVTCVVVDVSHEDPEVQFNWYVDGVEVHNAKTKPREEQFNSTFRVVSVLTVVHQDWLNGKEYKCKVSNKGLPAPIEKTISKTKGQPREPQVYTLPPSRKKMTKNQVSLTCLVKGFYPSDIAVEWESNGQPENNYKTTPPMLKSDGSFFLYSKLTVDKSRWQQGNVFSCSVMHEALHNHYTQKSLSLSPGK |
